Measured values as given in patent publication US6462254.

Target: angiostatin-FLAG-HA (pMB281.1)
Assay: ECL sandwich assay on 293 cell lysate, biotinylated anti-FLAG M2 capture

ECL signal above background (fold above background): > 2
Substance: anti-FLAG M2 monoclonal antibody (IBI/Kodak)
